Consider 18 variants from the RNAGym collection of RNA variant scans (doi:10.1021/acssynbio.7b00057).

B1: Pistol ribozyme (parent)
chain: GGGUCGUUGUUCCAUAAUCGCGUGGAUAUGGCACGCAAGUUUCUACCGGGCACCGUAAAUGUCCGACUGGAGCCGUUCGGGCGGCUAUAAACAGACCUCAGGCCCGAAGCGUGGCGGCACCUGCCGCCGGUGGUAAAAAAGAUCGGAAGAGCACACGUCU

Variants of B1 are the subject of this series. Kind of series: aptazyme ON/OFF ratio, guanine; higher = stronger switching; co-transcriptional cleavage with and without guanine.
Take GGGUCGCUAUACCAUAAUCGCGUGGAUAUGGCACGCAAGUUUCUACCGGGCACCGUAAAUGUCCGACUGGAGCCGUUCGGGCGGCUAUAAACAGACCUCAGGCCCGAAGCGUGGCGGCACCUGCCGCCGGUGGUAAAAAAGAUCGGAAGAGCACACGUCU [U7C G9A U11A]: the “aptazyme ON/OFF ratio” value was 1.33.
As to GGGUCGCUAGCCGAUAAUCGCGUGGAUAUGGCACGCAAGUUUCUACCGGGCACCGUAAAUGUCCGACUGGAGCCGUUCGGGCGGCUAUAAACAGACCUCAGGCCCGAAGCGUGGCGGCACCUGCCGCCGGUGGUAAAAAAGAUCGGAAGAGCACACGUCU [U7C G9A U10G U11C C13G], the “aptazyme ON/OFF ratio” value was determined as 1.03.
As to GGGUCGCUAGCCAAUAAUCGCGUGGAUAUGGCACGCAAGUUUCUACCGGGCACCGUAAAUGUCCGACUGGAGCCGUUCGGGCGGCUAUAAACAGACCUCAGGCCCGAAGCGUGGCGGCACCUGCCGCCGGUGGUAAAAAAGAUCGGAAGAGCACACGUCU [U7C G9A U10G U11C C13A], the “aptazyme ON/OFF ratio” value was 1.24.
With GGGUCGCUAGCCUAUAAUCGCGUGGAUAUGGCACGCAAGUUUCUACCGGGCACCGUAAAUGUCCGACUGGAGCCGUUCGGGCGGCUAUAAACAGACCUCAGGCCCGAAGCGUGGCGGCACCUGCCGCCGGUGGUAAAAAAGAUCGGAAGAGCACACGUCU [U7C G9A U10G U11C C13U] the figure was 1.06.
Next, GGGUCGCUAGCUAAUAAUCGCGUGGAUAUGGCACGCAAGUUUCUACCGGGCACCGUAAAUGUCCGACUGGAGCCGUUCGGGCGGCUAUAAACAGACCUCAGGCCCGAAGCGUGGCGGCACCUGCCGCCGGUGGUAAAAAAGAUCGGAAGAGCACACGUCU [U7C G9A U10G U11C C12U C13A]: 1.2; GGGUCGCUAGCUGAUAAUCGCGUGGAUAUGGCACGCAAGUUUCUACCGGGCACCGUAAAUGUCCGACUGGAGCCGUUCGGGCGGCUAUAAACAGACCUCAGGCCCGAAGCGUGGCGGCACCUGCCGCCGGUGGUAAAAAAGAUCGGAAGAGCACACGUCU [U7C G9A U10G U11C C12U C13G]: 1.09; GGGUCGCUAGCUUAUAAUCGCGUGGAUAUGGCACGCAAGUUUCUACCGGGCACCGUAAAUGUCCGACUGGAGCCGUUCGGGCGGCUAUAAACAGACCUCAGGCCCGAAGCGUGGCGGCACCUGCCGCCGGUGGUAAAAAAGAUCGGAAGAGCACACGUCU [U7C G9A U10G U11C C12U C13U]: 1.21.
With GGGUCGCUAGGACAUAAUCGCGUGGAUAUGGCACGCAAGUUUCUACCGGGCACCGUAAAUGUCCGACUGGAGCCGUUCGGGCGGCUAUAAACAGACCUCAGGCCCGAAGCGUGGCGGCACCUGCCGCCGGUGGUAAAAAAGAUCGGAAGAGCACACGUCU [U7C G9A U10G U11G C12A] the figure was 1.16; with GGGUCGCUAGGGCAUAAUCGCGUGGAUAUGGCACGCAAGUUUCUACCGGGCACCGUAAAUGUCCGACUGGAGCCGUUCGGGCGGCUAUAAACAGACCUCAGGCCCGAAGCGUGGCGGCACCUGCCGCCGGUGGUAAAAAAGAUCGGAAGAGCACACGUCU [U7C G9A U10G U11G C12G], 1.23; with GGGUCGCUAGGUCAUAAUCGCGUGGAUAUGGCACGCAAGUUUCUACCGGGCACCGUAAAUGUCCGACUGGAGCCGUUCGGGCGGCUAUAAACAGACCUCAGGCCCGAAGCGUGGCGGCACCUGCCGCCGGUGGUAAAAAAGAUCGGAAGAGCACACGUCU [U7C G9A U10G U11G C12U], 1.28.
GGGUCGCUAGCGCAUAAUCGCGUGGAUAUGGCACGCAAGUUUCUACCGGGCACCGUAAAUGUCCGACUGGAGCCGUUCGGGCGGCUAUAAACAGACCUCAGGCCCGAAGCGUGGCGGCACCUGCCGCCGGUGGUAAAAAAGAUCGGAAGAGCACACGUCU [U7C G9A U10G U11C C12G]: the “aptazyme ON/OFF ratio” value worked out at 1.32.
Next, GGGUCGCUAGCUCAUAAUCGCGUGGAUAUGGCACGCAAGUUUCUACCGGGCACCGUAAAUGUCCGACUGGAGCCGUUCGGGCGGCUAUAAACAGACCUCAGGCCCGAAGCGUGGCGGCACCUGCCGCCGGUGGUAAAAAAGAUCGGAAGAGCACACGUCU [U7C G9A U10G U11C C12U]: 1.18; GGGUCGCUAGGCCAUAAUCGCGUGGAUAUGGCACGCAAGUUUCUACCGGGCACCGUAAAUGUCCGACUGGAGCCGUUCGGGCGGCUAUAAACAGACCUCAGGCCCGAAGCGUGGCGGCACCUGCCGCCGGUGGUAAAAAAGAUCGGAAGAGCACACGUCU [U7C G9A U10G U11G]: 1.09; GGGUCGCUAUAGCAUAAUCGCGUGGAUAUGGCACGCAAGUUUCUACCGGGCACCGUAAAUGUCCGACUGGAGCCGUUCGGGCGGCUAUAAACAGACCUCAGGCCCGAAGCGUGGCGGCACCUGCCGCCGGUGGUAAAAAAGAUCGGAAGAGCACACGUCU [U7C G9A U11A C12G]: 1.28.
Take GGGUCGCUAUAACAUAAUCGCGUGGAUAUGGCACGCAAGUUUCUACCGGGCACCGUAAAUGUCCGACUGGAGCCGUUCGGGCGGCUAUAAACAGACCUCAGGCCCGAAGCGUGGCGGCACCUGCCGCCGGUGGUAAAAAAGAUCGGAAGAGCACACGUCU [U7C G9A U11A C12A]: the “aptazyme ON/OFF ratio” value turned out to be 1.38.
With GGGUCGCUAUAAAAUAAUCGCGUGGAUAUGGCACGCAAGUUUCUACCGGGCACCGUAAAUGUCCGACUGGAGCCGUUCGGGCGGCUAUAAACAGACCUCAGGCCCGAAGCGUGGCGGCACCUGCCGCCGGUGGUAAAAAAGAUCGGAAGAGCACACGUCU [U7C G9A U11A C12A C13A] the figure was 1.24; with GGGUCGCUAUAAUAUAAUCGCGUGGAUAUGGCACGCAAGUUUCUACCGGGCACCGUAAAUGUCCGACUGGAGCCGUUCGGGCGGCUAUAAACAGACCUCAGGCCCGAAGCGUGGCGGCACCUGCCGCCGGUGGUAAAAAAGAUCGGAAGAGCACACGUCU [U7C G9A U11A C12A C13U], 1.21; with GGGUCGCUAUAAGAUAAUCGCGUGGAUAUGGCACGCAAGUUUCUACCGGGCACCGUAAAUGUCCGACUGGAGCCGUUCGGGCGGCUAUAAACAGACCUCAGGCCCGAAGCGUGGCGGCACCUGCCGCCGGUGGUAAAAAAGAUCGGAAGAGCACACGUCU [U7C G9A U11A C12A C13G], 1.12.
